These results are taken from patent US20220177589A1 (OXFORD UNIVERSITY INNOVATION, published 2022).

Test [1] deals with full length human BTLA expressed in a Jurkat T cell line (human, UniProt Q7Z6A9 31-289). Kind of test: cell-based or functional assay.
Test [2] has as its target chimeric BTLA of humanised-BTLA mice (human extracellular region, murine transmembrane and signaling … (human; mouse, UniProt Q7TSA3 184-306, limits assumed). The experiment in a line: cell-based or functional assay.

Numbering of substitutions follows the chain as printed.

Sequence of chimeric BTLA of humanised-BTLA mice (human extracellular region, murine transmembrane and signaling … (Q7TSA3 other isoform, or with tags, fused parts or gaps mutant limits assumed): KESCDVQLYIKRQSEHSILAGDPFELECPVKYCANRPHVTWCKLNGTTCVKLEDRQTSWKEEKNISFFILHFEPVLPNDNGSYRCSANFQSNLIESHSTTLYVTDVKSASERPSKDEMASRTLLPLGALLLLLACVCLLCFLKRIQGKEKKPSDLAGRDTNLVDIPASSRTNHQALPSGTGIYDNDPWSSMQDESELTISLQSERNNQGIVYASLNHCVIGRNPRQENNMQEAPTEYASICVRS

B1: 3E8 (antibody, IgG1, V domains shown)
VH: QVQLQQSGAELARPGASVRLSCKASGYTFTSYAIRWVKQRTGQGLEWIGEIYPRSGNTYYNENFKGKATLTADKSSSTAYMELRSLTSEDSAVYFCARSGGASYTMDYWGQGTSVTVSS
VL: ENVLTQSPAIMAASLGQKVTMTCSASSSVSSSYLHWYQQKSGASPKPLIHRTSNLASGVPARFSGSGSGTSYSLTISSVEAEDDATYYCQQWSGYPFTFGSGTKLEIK
As for B1, in test [1], the “T cell reporter (NFkB signaling), % inhibition” value (shortened to “T cell reporter … % inhibition”) came to 30%. Further, in test [2], the “AntiCD3/CD28 (CD4 T cell proliferation) repeat 1, % inhibition” value came out at 27%; the “AntiCD3/CD28 (CD4 T cell proliferation) repeat 2, % inhibition” value is 35%; the “AntiCD3/CD28 (CD69+ CD4 T cells) repeat 1, % inhibition” value stood at 52%; the “AntiCD3/CD28 (CD69+ CD4 T cells) repeat 2, % inhibition” value stood at 64%. Besides, in test [2], the “MLR (CD4 T cell proliferation) repeat 1, % inhibition” value amounted to 43% and the “MLR (CD4 T cell proliferation) repeat 2, % inhibition” value was 35%.

B2: 26B1 (antibody, IgG1, V domains shown)
VH: EVQLQQSGPVLVKPGASVKMSCKASGYTFTDYYLNWVKQSHGKSLEWIGLIDPYNGGSSCNQKFKGKATLTVDKSSSTAYMDLNSLTSEDSAVYYCARGNAMDYWGQGTSVTVSS
VL: DIVMTQSHKFMSTSVGDRVSITCKASQDVSTAVAWYQEKPGQSPKLLIYWASTRHTGVPDRFTGSGSGTDYILNISSVQAEDLALYYCQQHYIIPYMFGGGTKLEIK
Take B2: the “T cell reporter … % inhibition” value in test [1] stood at 29%. For the same molecule, in test [2], the “AntiCD3/CD28 (CD4 T cell proliferation) repeat 1, % inhibition” value came out at 11%; the “AntiCD3/CD28 (CD4 T cell proliferation) repeat 2, % inhibition” value is 19%; the “AntiCD3/CD28 (CD69+ CD4 T cells) repeat 1, % inhibition” value amounted to 35%; the “AntiCD3/CD28 (CD69+ CD4 T cells) repeat 2, % inhibition” value was 30%. Moreover, in test [2], the “MLR (CD4 T cell proliferation) repeat 1, % inhibition” value is 12% and the “MLR (CD4 T cell proliferation) repeat 2, % inhibition” value amounted to 10%.

B3: 7A1 (antibody, IgG1, V domains shown)
VH: QVQLQQSGPELVKPGASVKISCKASGYAFSSSWMNWVKQRPGKGLEWIGRIYPGDGDTNYNGKFKGKATLTADKSSSTAYMQLSSLTSEDSAVYFCARRGYGYLAYWGQGTLVTVSA
VL: DIVMTQSHKFMSTSVGDRVSITCKASQDVSTAVAWYQQKPGQSPKLLIYSASYRYTGVPDRFTGSGSGTDFTFTISSVQAEDLAVYYCQQHYSTPWTFGGGTKLEIK
On to B3, for which, in test [1], the “T cell reporter … % inhibition” value came out at 20%. In addition, in test [2], the “AntiCD3/CD28 (CD4 T cell proliferation) repeat 1, % inhibition” value was found to be 14%; the “AntiCD3/CD28 (CD4 T cell proliferation) repeat 2, % inhibition” value amounted to 17%; the “AntiCD3/CD28 (CD69+ CD4 T cells) repeat 1, % inhibition” value worked out at 28%; the “AntiCD3/CD28 (CD69+ CD4 T cells) repeat 2, % inhibition” value stood at 38%. Moreover, in test [2], the “MLR (CD4 T cell proliferation) repeat 1, % inhibition” value came to 23% and the “MLR (CD4 T cell proliferation) repeat 2, % inhibition” value was 29%.

B4: 15C6 (antibody, IgG1, V domains shown)
VH: B3 VH
VL: B3 VL with W96Y
B4: the “T cell reporter … % inhibition” value in test [1] came out at 9%. For the same molecule, in test [2], the “AntiCD3/CD28 (CD4 T cell proliferation) repeat 1, % inhibition” value is 2%; the “AntiCD3/CD28 (CD4 T cell proliferation) repeat 2, % inhibition” value was -2%; the “AntiCD3/CD28 (CD69+ CD4 T cells) repeat 1, % inhibition” value was 12%; the “AntiCD3/CD28 (CD69+ CD4 T cells) repeat 2, % inhibition” value turned out to be 19%. In test [2], the “MLR (CD4 T cell proliferation) repeat 1, % inhibition” value turned out to be 19% and the “MLR (CD4 T cell proliferation) repeat 2, % inhibition” value is 8%.

B5: 3A9 (antibody, IgG1, V domains shown)
VH: QVQLKQSGAELVRPGASVKLSCKASGYTFTDYYINWVKQRPGQGLEWIARIYPGSGNTYYNEKFKGKATLTAEKSSSTAYMQLSSLTSEDSAVYFCARGYGNSDYWGQGTTLTVSS
VL: DILLTQSPAILSVSPGERVSFSCRASQSIGTRIHWYQQRTNGSPRLLIKYASESISGIPSRFSGSGSGTDFTLSINSVESEDIADYYCQQSNSWPYTFGGGTKLEIK
For B5, the “T cell reporter … % inhibition” value in test [1] came out at 27%. Besides, in test [2], the “AntiCD3/CD28 (CD4 T cell proliferation) repeat 1, % inhibition” value was found to be 9%; the “AntiCD3/CD28 (CD4 T cell proliferation) repeat 2, % inhibition” value stood at 9%; the “AntiCD3/CD28 (CD69+ CD4 T cells) repeat 1, % inhibition” value came out at 22%; the “AntiCD3/CD28 (CD69+ CD4 T cells) repeat 2, % inhibition” value is 34%. In test [2], the “MLR (CD4 T cell proliferation) repeat 1, % inhibition” value was found to be 7% and the “MLR (CD4 T cell proliferation) repeat 2, % inhibition” value is 24%.

B6: 15B6 (antibody, IgG1, V domains shown)
VH: QVQLQQPGAELVKPGASVKLSCKASGYTFTSYWMHWVKQRPGQGLEWIGMIHPNSGSTNYNEKFKSKATLTVDKSSSTAYMQLSSLTSEDSAVYYCARKRGGLGDYWGQGTSVTVSS
VL: DIVLTQSPASLAVSLGQRATISCRASKSVSTSGYSYMHWYQQKPGQPPKLLIYLASNLESGVPARFSGSGSGTDFTLNIHPVEEEDAATYYCQHSRELPYTFGGGTKLEIK
Regarding B6, the “T cell reporter … % inhibition” value in test [1] came to 21%. Besides, in test [2], the “AntiCD3/CD28 (CD4 T cell proliferation) repeat 1, % inhibition” value worked out at 9%; the “AntiCD3/CD28 (CD4 T cell proliferation) repeat 2, % inhibition” value came out at 16%; the “AntiCD3/CD28 (CD69+ CD4 T cells) repeat 1, % inhibition” value stood at 13%; the “AntiCD3/CD28 (CD69+ CD4 T cells) repeat 2, % inhibition” value amounted to 20%. Moreover, in test [2], the “MLR (CD4 T cell proliferation) repeat 1, % inhibition” value was 7% and the “MLR (CD4 T cell proliferation) repeat 2, % inhibition” value was 13%.

B7: 8C4 (antibody, IgG1, V domains shown)
VH: DVQLQESGPGMVKPSQSLSLTCTVTGYSITSGYDWHWIRHFPGNKLEWMGYISYSGSTNYNPSLKSRISITHDTSKNHFFLKLNSVTTEDTATYYCARGTPVVAEDYFDYWGQGTTLTVSS
VL: QAVVTQESALSTSPGETVTLTCRSSTGAVTTSNYANWVQEKPDHLFTGLIGATNNRAPGVPARFSGSLIGDKAALTITGAQTEDEAIYFCALWYSNHLVFGGGTKLTVLG
As for B7, in test [1], the “T cell reporter … % inhibition” value turned out to be 21%. Besides, in test [2], the “AntiCD3/CD28 (CD4 T cell proliferation) repeat 1, % inhibition” value was 12%; the “AntiCD3/CD28 (CD4 T cell proliferation) repeat 2, % inhibition” value is 4%; the “AntiCD3/CD28 (CD69+ CD4 T cells) repeat 1, % inhibition” value came to 29%; the “AntiCD3/CD28 (CD69+ CD4 T cells) repeat 2, % inhibition” value came to 29%. For the same molecule, in test [2], the “MLR (CD4 T cell proliferation) repeat 1, % inhibition” value is 42% and the “MLR (CD4 T cell proliferation) repeat 2, % inhibition” value was -2%.

B8: 12F11 (antibody, IgG1, V domains shown)
VH: EVQLQQSGPELVKPGASVKISCKASGYTFTDYYMNWVKQSHGKSLEWIGDINPNNGGTSYNQKFKGKATLTVDKSSSTAYMELRSLTSEDSAVYYCARWRQLRSDYWGQGTTLTVSS
VL: DIQMTQSPASQSASLGESVTITCLASQTIGTWLAWYQQKPGKSPQLLIYAATSLADGVPSRFSGSGSGTKFSFKISSLQAEDFVSYYCQQLYSTPLTFGAGTKLELK
With B8, in test [1], the “T cell reporter … % inhibition” value was found to be 30%. In addition, in test [2], the “AntiCD3/CD28 (CD4 T cell proliferation) repeat 1, % inhibition” value came to 5%; the “AntiCD3/CD28 (CD4 T cell proliferation) repeat 2, % inhibition” value is 9%; the “AntiCD3/CD28 (CD69+ CD4 T cells) repeat 1, % inhibition” value worked out at 30%; the “AntiCD3/CD28 (CD69+ CD4 T cells) repeat 2, % inhibition” value was 40%. For the same molecule, in test [2], the “MLR (CD4 T cell proliferation) repeat 1, % inhibition” value is 28% and the “MLR (CD4 T cell proliferation) repeat 2, % inhibition” value came out at 23%.

B9: 27G9 (antibody, IgG1, V domains shown)
VH: EVQLQQSVAELVRPGASVKLSCTASGFNIKNTYMHWVKQRPEQGLEWIGRIDPANGNTKYAPKFQGKATITADTSSNTAYLQLSSLTSEDTAIYYCALTYYGSSQYYFDYWGQGTTLTVSS
VL: not shown
As for B9, the “T cell reporter … % inhibition” value in test [1] turned out to be 24%. Also, in test [2], the “AntiCD3/CD28 (CD4 T cell proliferation) repeat 1, % inhibition” value amounted to 10%; the “AntiCD3/CD28 (CD4 T cell proliferation) repeat 2, % inhibition” value was 13%; the “AntiCD3/CD28 (CD69+ CD4 T cells) repeat 1, % inhibition” value was determined as 24%; the “AntiCD3/CD28 (CD69+ CD4 T cells) repeat 2, % inhibition” value was determined as 22%. Also, in test [2], the “MLR (CD4 T cell proliferation) repeat 1, % inhibition” value was determined as 9% and the “MLR (CD4 T cell proliferation) repeat 2, % inhibition” value came to 8%.

B10: 1H6 (antibody, IgG1, V domains shown)
VH: B9 VH with A61D, L81V, Y106H
VL: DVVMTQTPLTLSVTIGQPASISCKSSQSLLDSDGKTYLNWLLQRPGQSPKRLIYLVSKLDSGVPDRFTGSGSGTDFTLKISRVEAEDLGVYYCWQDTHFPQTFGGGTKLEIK
Take B10: in test [1], the “T cell reporter … % inhibition” value came to 26%. Besides, in test [2], the “AntiCD3/CD28 (CD4 T cell proliferation) repeat 1, % inhibition” value came out at 26%; the “AntiCD3/CD28 (CD4 T cell proliferation) repeat 2, % inhibition” value worked out at 19%; the “AntiCD3/CD28 (CD69+ CD4 T cells) repeat 1, % inhibition” value worked out at 47%; the “AntiCD3/CD28 (CD69+ CD4 T cells) repeat 2, % inhibition” value turned out to be 53%. For the same molecule, in test [2], the “MLR (CD4 T cell proliferation) repeat 1, % inhibition” value was found to be 31% and the “MLR (CD4 T cell proliferation) repeat 2, % inhibition” value turned out to be 16%.

B11: 26F3 (antibody, IgG1, V domains shown)
VH: B9 VH with H35Y, T99L, Q105Y, Y106D
VL: not shown
With B11, the “T cell reporter … % inhibition” value in test [1] is 20%. Besides, in test [2], the “AntiCD3/CD28 (CD4 T cell proliferation) repeat 1, % inhibition” value is 4%; the “AntiCD3/CD28 (CD4 T cell proliferation) repeat 2, % inhibition” value was determined as 0%; the “AntiCD3/CD28 (CD69+ CD4 T cells) repeat 1, % inhibition” value is 19%; the “AntiCD3/CD28 (CD69+ CD4 T cells) repeat 2, % inhibition” value is 17%. Also, in test [2], the “MLR (CD4 T cell proliferation) repeat 1, % inhibition” value worked out at 9% and the “MLR (CD4 T cell proliferation) repeat 2, % inhibition” value is -5%.

B12: 10B1 (antibody, IgG1, V domains shown)
VH: QVQLQQSGAELARPGASVKLSCKASGYTFTSYGISWVKQRTGQGLEWIGEIYPRSGNTYYNEKFKGKATLTADKSSSTAYMELRSLTSEDSAVYFCARNYGSSYPFAYWGQGTLVTVSA
VL: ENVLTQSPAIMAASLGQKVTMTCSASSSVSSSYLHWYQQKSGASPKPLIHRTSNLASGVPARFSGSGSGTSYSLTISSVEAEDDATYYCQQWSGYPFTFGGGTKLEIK
For B12, the “T cell reporter … % inhibition” value in test [1] turned out to be 27%. In test [2], the “AntiCD3/CD28 (CD4 T cell proliferation) repeat 1, % inhibition” value came out at 8%; the “AntiCD3/CD28 (CD4 T cell proliferation) repeat 2, % inhibition” value stood at 14%; the “AntiCD3/CD28 (CD69+ CD4 T cells) repeat 1, % inhibition” value worked out at 24%; the “AntiCD3/CD28 (CD69+ CD4 T cells) repeat 2, % inhibition” value came to 36%. Besides, in test [2], the “MLR (CD4 T cell proliferation) repeat 1, % inhibition” value was 16% and the “MLR (CD4 T cell proliferation) repeat 2, % inhibition” value amounted to 25%.

B13: 16E1 (antibody, IgG1, V domains shown)
VH: B12 VH with N99G, P105G
VL: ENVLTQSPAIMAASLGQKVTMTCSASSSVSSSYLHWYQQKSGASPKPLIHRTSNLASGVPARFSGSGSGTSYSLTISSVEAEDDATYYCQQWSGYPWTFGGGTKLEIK
Consider B13, for which, in test [1], the “T cell reporter … % inhibition” value was 22%. Moreover, in test [2], the “AntiCD3/CD28 (CD4 T cell proliferation) repeat 1, % inhibition” value is 4%; the “AntiCD3/CD28 (CD4 T cell proliferation) repeat 2, % inhibition” value is 8%; the “AntiCD3/CD28 (CD69+ CD4 T cells) repeat 1, % inhibition” value came to 9%; the “AntiCD3/CD28 (CD69+ CD4 T cells) repeat 2, % inhibition” value came out at 23%. Moreover, in test [2], the “MLR (CD4 T cell proliferation) repeat 1, % inhibition” value amounted to 33% and the “MLR (CD4 T cell proliferation) repeat 2, % inhibition” value was determined as 8%.
